Here are results for 1 substance from publication PMC4015666 (Journal of Diabetes Investigation, 2013).

Details of data set [1]: species or system healthy Japanese adult males. As to conditions: in vivo.
Data set [2] in a line: Hypoglycemia monitoring after insulin lispro injection. The class given is in vivo, healthy Japanese adult males. As to conditions: 1.5 or 2.0 U s.c. abdomen, 12 participants, three tests each.
For data set [3] the following is noted: 0.025‐U/kg dose; cited from earlier work.

As to insulin lispro, in data set [1], the “Bioequivalence of AUC0–∞” value is “bioequivalent”, the “Bioequivalence of Cmax” value is on record as “bioequivalent” and the “Bioequivalence of Tmax” value is “bioequivalent”. Moreover, the “participants who developed severe hypoglycemia (<50 mg/dL)” value in data set [2] is reported as “None”. In addition, in data set [3], the “half‐life” value was 53 min and the “time to the maximum insulin concentration (Tmax)” value was “approximately 37 min”.
